Among the data in US20250215412A1 (NOVOZYMES A S, published 2025) are Relative activity of maturated deamidase (% initial rate) and NanoDSF thermal unfolding temperature values, retold here.

Changes are numbered by the printed parent chain. Names may count otherwise.

For the assay, the target named is T1, Chryseobacterium sp-62563 deamidase polypeptide (second polypeptide, deamidase domain), wildtype (Chryseobacterium sp-62563).
T1 sequence: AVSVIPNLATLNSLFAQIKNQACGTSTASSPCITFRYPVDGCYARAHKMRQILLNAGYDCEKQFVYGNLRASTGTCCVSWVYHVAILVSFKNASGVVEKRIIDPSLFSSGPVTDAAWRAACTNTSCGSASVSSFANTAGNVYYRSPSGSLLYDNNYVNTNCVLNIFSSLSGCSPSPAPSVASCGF
As to the kind of experiment: cell-based or functional assay.

B1: Chryseobacterium sp-62563 propeptide K96V (protein)
chain: NQDPNLVAKESNETAMKDFGKTVPVGIEKEDGKFKISFMVTAQPYEIKDSKENAAYISMIKTAVENETPIHVFLKANTNEIAKVDKATDDDIRYFVSVFTKEVKEENRK
On to B1, for which the Relative activity of maturated deamidase (% initial rate) was found to be 41.

B2: Chryseobacterium sp-62563 propeptide F95I (protein)
chain: B1 chain with F95I, V96K
As to B2, the Relative activity of maturated deamidase (% initial rate) came to 58.

B3: Chryseobacterium sp-62563 propeptide T88G (protein)
chain: B1 chain with T88G, V96K
B3 came in with a Relative activity of maturated deamidase (% initial rate) of 66.

B4: Chryseobacterium sp-62563 propeptide K96N (protein)
chain: B1 chain with V96N
Consider B4, for which the Relative activity of maturated deamidase (% initial rate) was determined as 55.

B5: Chryseobacterium sp-62563 propeptide P69S (protein)
chain: B1 chain with P69S, V96K
B5 returned a NanoDSF thermal unfolding temperature of 77.7 ° C.

B6: Chryseobacterium sp-62563 propeptide T88V (protein)
chain: B1 chain with T88V, V96K
Regarding B6, the Relative activity of maturated deamidase (% initial rate) was determined as 51.

B7: Chryseobacterium sp-62563 propeptide I92L (protein)
chain: B1 chain with I92L, V96K
Regarding B7, the Relative activity of maturated deamidase (% initial rate) was 31.

B8: Chryseobacterium sp-62563 propeptide P69T (protein)
chain: B1 chain with P69T, V96K
Consider B8, for which the NanoDSF thermal unfolding temperature came to 78.5 ° C and the Relative activity of maturated deamidase (% initial rate) is 33.

B9: Chryseobacterium sp-62563 propeptide F95S (protein)
chain: B1 chain with F95S, V96K
In turn, B9 displayed a Relative activity of maturated deamidase (% initial rate) of over 100.

B10: Chryseobacterium sp-62563 propeptide T88H (protein)
chain: B1 chain with T88H, V96K
As for B10, the Relative activity of maturated deamidase (% initial rate) worked out at 41.

B11: Chryseobacterium sp-62563 propeptide F95V (protein)
chain: B1 chain with F95V, V96K
Molecule B11 showed a Relative activity of maturated deamidase (% initial rate) of 66.

B12: Chryseobacterium sp-62563 propeptide K96T (protein)
chain: B1 chain with V96T
In the case of B12, the Relative activity of maturated deamidase (% initial rate) is 34.

B13: Chryseobacterium sp-62563 propeptide D91S (protein)
chain: B1 chain with D91S, V96K
Regarding B13, the Relative activity of maturated deamidase (% initial rate) amounted to 48.

B14: Chryseobacterium sp-62563 propeptide K96Q (protein)
chain: B1 chain with V96Q
Molecule B14 gave a Relative activity of maturated deamidase (% initial rate) of over 100.

B15: Chryseobacterium sp-62563 propeptide I92K (protein)
chain: B1 chain with I92K, V96K
In the case of B15, the Relative activity of maturated deamidase (% initial rate) amounted to 32.

B16: Chryseobacterium sp-62563 propeptide K96M (protein)
chain: B1 chain with V96M
The molecule B16 yielded a Relative activity of maturated deamidase (% initial rate) of 45.

B17: Chryseobacterium sp-62563 propeptide I92M (protein)
chain: B1 chain with I92M, V96K
For B17, the Relative activity of maturated deamidase (% initial rate) was determined as 38.

B18: Chryseobacterium sp-62563 propeptide K96L (protein)
chain: B1 chain with V96L
Turning to B18, the Relative activity of maturated deamidase (% initial rate) turned out to be 50.

B19: Chryseobacterium sp-62563 propeptide Y94R (protein)
chain: B1 chain with Y94R, V96K
As for B19, the Relative activity of maturated deamidase (% initial rate) stood at 52.

B20: Chryseobacterium sp-62563 propeptide D91H (protein)
chain: B1 chain with D91H, V96K
In turn, B20 registered a Relative activity of maturated deamidase (% initial rate) of 64.

B21: Chryseobacterium sp-62563 propeptide E67W (protein)
chain: B1 chain with E67W, V96K
Regarding B21, the Relative activity of maturated deamidase (% initial rate) is over 100.

B22: Chryseobacterium sp-62563 propeptide D91M (protein)
chain: B1 chain with D91M, V96K
Consider B22, for which the Relative activity of maturated deamidase (% initial rate) is 31.

B23: Chryseobacterium sp-62563 propeptide F95T (protein)
chain: B1 chain with F95T, V96K
For the molecule B23, the Relative activity of maturated deamidase (% initial rate) was found to be 93.

B24: Chryseobacterium sp-62563 propeptide F95N (protein)
chain: B1 chain with F95N, V96K
In the case of B24, the Relative activity of maturated deamidase (% initial rate) turned out to be 85.

B25: Chryseobacterium sp-62563 propeptide D91Q (protein)
chain: B1 chain with D91Q, V96K
As to B25, the Relative activity of maturated deamidase (% initial rate) worked out at 28.

B26: Chryseobacterium sp-62563 propeptide T88I (protein)
chain: B1 chain with T88I, V96K
Consider B26, for which the Relative activity of maturated deamidase (% initial rate) amounted to 52.

B27: Chryseobacterium sp-62563 propeptide F95Y (protein)
chain: B1 chain with F95Y, V96K
Turning to B27, the Relative activity of maturated deamidase (% initial rate) came to 27.

B28: Chryseobacterium sp-62563 propeptide F95H (protein)
chain: B1 chain with F95H, V96K
Turning to B28, the Relative activity of maturated deamidase (% initial rate) came to 76.

B29: Chryseobacterium sp-62563 propeptide F95W (protein)
chain: B1 chain with F95W, V96K
B29 showed a Relative activity of maturated deamidase (% initial rate) of 58.

B30: Chryseobacterium sp-62563 propeptide K96E (protein)
chain: B1 chain with V96E
In turn, B30 returned a Relative activity of maturated deamidase (% initial rate) of over 100.

B31: Chryseobacterium sp-62563 propeptide Y94K (protein)
chain: B1 chain with Y94K, V96K
The molecule B31 yielded a Relative activity of maturated deamidase (% initial rate) of 49.

B32: Chryseobacterium sp-62563 propeptide T88F (protein)
chain: B1 chain with T88F, V96K
In the case of B32, the Relative activity of maturated deamidase (% initial rate) was 28.

B33: Chryseobacterium sp-62563 propeptide T88R (protein)
chain: B1 chain with T88R, V96K
B33 came in with a Relative activity of maturated deamidase (% initial rate) of 46.

B34: Chryseobacterium sp-62563 propeptide F95K (protein)
chain: B1 chain with F95K, V96K
Turning to B34, the Relative activity of maturated deamidase (% initial rate) was over 100.

B35: Chryseobacterium sp-62563 propeptide E67T (protein)
chain: B1 chain with E67T, V96K
B35 came in with a Relative activity of maturated deamidase (% initial rate) of 40.

B36: Chryseobacterium sp-62563 propeptide D91G (protein)
chain: B1 chain with D91G, V96K
As for B36, the Relative activity of maturated deamidase (% initial rate) was 56.

B37: Chryseobacterium sp-62563 propeptide K96H (protein)
chain: B1 chain with V96H
The molecule B37 had a Relative activity of maturated deamidase (% initial rate) of 30.

B38: Chryseobacterium sp-62563 propeptide F73E (protein)
chain: B1 chain with F73E, V96K
Turning to B38, the Relative activity of maturated deamidase (% initial rate) was 28.

B39: Chryseobacterium sp-62563 propeptide F95M (protein)
chain: B1 chain with F95M, V96K
Turning to B39, the Relative activity of maturated deamidase (% initial rate) amounted to 51.

B40: Chryseobacterium sp-62563 propeptide F95R (protein)
chain: B1 chain with F95R, V96K
B40 showed a Relative activity of maturated deamidase (% initial rate) of over 100.

B41: Chryseobacterium sp-62563 propeptide F95A (protein)
chain: B1 chain with F95A, V96K
B41 had a Relative activity of maturated deamidase (% initial rate) of over 100.

B42: Chryseobacterium sp-62563 propeptide I92G (protein)
chain: B1 chain with I92G, V96K
B42 registered a Relative activity of maturated deamidase (% initial rate) of 69.

B43: Chryseobacterium sp-62563 propeptide T88K (protein)
chain: B1 chain with T88K, V96K
As to B43, the Relative activity of maturated deamidase (% initial rate) turned out to be 33.

B44: Chryseobacterium sp-62563 propeptide F95L (protein)
chain: B1 chain with F95L, V96K
In the case of B44, the Relative activity of maturated deamidase (% initial rate) was found to be 61.

B45: Chryseobacterium sp-62563 propeptide I92S (protein)
chain: B1 chain with I92S, V96K
In turn, B45 showed a Relative activity of maturated deamidase (% initial rate) of 40.

B46: Chryseobacterium sp-62563 propeptide K96I (protein)
chain: B1 chain with V96I
Molecule B46 gave a Relative activity of maturated deamidase (% initial rate) of 71.

B47: Chryseobacterium sp-62563 propeptide E67V (protein)
chain: B1 chain with E67V, V96K
For B47, the Relative activity of maturated deamidase (% initial rate) is 27.

B48: Chryseobacterium sp-62563 propeptide I92A (protein)
chain: B1 chain with I92A, V96K
B48: the Relative activity of maturated deamidase (% initial rate) is 31.

B49: Chryseobacterium sp-62563 propeptide K96C (protein)
chain: B1 chain with V96C
Molecule B49 showed a Relative activity of maturated deamidase (% initial rate) of 95.

B50: Chryseobacterium sp-62563 propeptide K96F (protein)
chain: B1 chain with V96F
In turn, B50 registered a Relative activity of maturated deamidase (% initial rate) of 95.
